In patent US11819556B2, “Stabilized compositions of radionuclides and uses thereof” (RayzeBio, Inc., priority 2021, dated 2023):

Tests used:
Format in all cases: physicochemical
[1] = Dextran ratio optimization: radio-TLC purity; settings: 25 μCi/ml
Method: (§1) The mixture was kept at room temperature (25° C.). At different time points, radioactive components of the formulated dose were measured by radio-TLC as described in the table below: […]

[2] = Sodium ascorbate concentration optimization: radio-TLC purity; settings: 25° C.
Method: as §1

[3] = Control formulation without excipient (WFI): radio-TLC purity; settings: 0.02 mCi/ml; for free Actinium / fragments: 25° C.; for Percentage of ^225Ac present in [^225Ac]Ac-DOTA-TATE: pH 6.13, 25° C.
Method: The mixture was kept at room temperature (25° C.). At different time points, purity of [^225Ac]Ac-DOTA-TATE in the formulated dose were measured by radio-TLC as described in the table below: […]

(2,2′,2″-(10-(2-4(R)-1-(((4R,7S,10S,13R,16S,19R)-13-((1H-indol-3-yl)methyl)-10-(4-aminobutyl)-4-(((1S,2R)-1-carboxy-2-hydroxypropyl)carbamoyl)-16-(4-hydroxybenzyl)-7-((R)-1-hydroxyethyl)-6,9,12,15,18-pentaoxo-1,2-dithia-5,8,11,14,17-pentaazacycloicosan-19-yl)amino)-1-oxo-3-phenylpropan-2-yl)amino)-2-oxoethyl)-1,4,7,10-tetraazacyclododecane-1,4,7-triyl)triacetate; actinium-225(3+)) [[^225Ac]Ac-DOTA-TATE]
Percentage of ^225Ac present in [^225Ac]Ac-DOTA-TATE ([1]; Dextran 3% w/w, 0 hour, 100 mM sodium ascorbate, 0.05 mg/ml DTPA, saline, pH 5.80, 25° C.): 99.86% | Percentage of ^225Ac present in [^225Ac]Ac-DOTA-TATE ([1]; Dextran 3% w/w, 24 hours, 100 mM sodium ascorbate, 0.05 mg/ml DTPA, saline, pH 5.80, 25° C.): 98.62% | Percentage of ^225Ac present in [^225Ac]Ac-DOTA-TATE ([1]; Dextran 3% w/w, 48 hours, 100 mM sodium ascorbate, 0.05 mg/ml DTPA, saline, pH 5.80, 25° C.): 98.48% | Percentage of ^225Ac present in [^225Ac]Ac-DOTA-TATE ([1]; Dextran 3% w/w, 72 hours, 100 mM sodium ascorbate, 0.05 mg/ml DTPA, saline, pH 5.80, 25° C.): 97.91% | Percentage of ^225Ac present in [^225Ac]Ac-DOTA-TATE ([1]; Dextran 3% w/w, 96 hours, 100 mM sodium ascorbate, 0.05 mg/ml DTPA, saline, pH 5.80, 25° C.): 96.48% | Percentage of ^225Ac present in [^225Ac]Ac-DOTA-TATE ([1]; Dextran 3% w/w, 120 hours, 100 mM sodium ascorbate, 0.05 mg/ml DTPA, saline, pH 5.80, 25° C.): 96.67% | Percentage of ^225Ac present in [^225Ac]Ac-DOTA-TATE ([1]; Dextran 3% w/w, 144 hours, 100 mM sodium ascorbate, 0.05 mg/ml DTPA, saline, pH 5.80, 25° C.): 95.77% | Percentage of ^225Ac present in [^225Ac]Ac-DOTA-TATE ([1]; Dextran 6% w/w, 0 hour, 100 mM sodium ascorbate, 0.05 mg/ml DTPA, saline, pH 5.80, 25° C.): 100% | Percentage of ^225Ac present in [^225Ac]Ac-DOTA-TATE ([1]; Dextran 6% w/w, 24 hours, 100 mM sodium ascorbate, 0.05 mg/ml DTPA, saline, pH 5.80, 25° C.): 99.08% | Percentage of ^225Ac present in [^225Ac]Ac-DOTA-TATE ([1]; Dextran 6% w/w, 48 hours, 100 mM sodium ascorbate, 0.05 mg/ml DTPA, saline, pH 5.80, 25° C.): 98.83% | Percentage of ^225Ac present in [^225Ac]Ac-DOTA-TATE ([1]; Dextran 6% w/w, 72 hours, 100 mM sodium ascorbate, 0.05 mg/ml DTPA, saline, pH 5.80, 25° C.): 98.29% | Percentage of ^225Ac present in [^225Ac]Ac-DOTA-TATE ([1]; Dextran 6% w/w, 96 hours, 100 mM sodium ascorbate, 0.05 mg/ml DTPA, saline, pH 5.80, 25° C.): 96.99% | Percentage of ^225Ac present in [^225Ac]Ac-DOTA-TATE ([1]; Dextran 6% w/w, 120 hours, 100 mM sodium ascorbate, 0.05 mg/ml DTPA, saline, pH 5.80, 25° C.): 97.00% | Percentage of ^225Ac present in [^225Ac]Ac-DOTA-TATE ([1]; Dextran 6% w/w, 144 hours, 100 mM sodium ascorbate, 0.05 mg/ml DTPA, saline, pH 5.80, 25° C.): 96.41% | Percentage of ^225Ac present in [^225Ac]Ac-DOTA-TATE ([1]; Dextran 10% w/w, no L-ascorbate, 0 hour, 25° C.): 100% | Percentage of ^225Ac present in [^225Ac]Ac-DOTA-TATE ([1]; Dextran 10% w/w, no L-ascorbate, 24 hours, 25° C.): 95.38% | Percentage of ^225Ac present in [^225Ac]Ac-DOTA-TATE ([1]; Dextran 10% w/w, no L-ascorbate, 48 hours, 25° C.): 93.36% | Percentage of ^225Ac present in [^225Ac]Ac-DOTA-TATE ([1]; Dextran 10% w/w, no L-ascorbate, 72 hours, 25° C.): 89.11% | Percentage of ^225Ac present in [^225Ac]Ac-DOTA-TATE ([1]; Dextran 10% w/w, no L-ascorbate, 96 hours, 25° C.): 87.20% | Percentage of ^225Ac present in [^225Ac]Ac-DOTA-TATE ([1]; Dextran 10% w/w, 0 hour, 100 mM sodium ascorbate, 0.05 mg/ml DTPA, saline, pH 5.80, 25° C.): 99.67% | Percentage of ^225Ac present in [^225Ac]Ac-DOTA-TATE ([1]; Dextran 10% w/w, 24 hours, 100 mM sodium ascorbate, 0.05 mg/ml DTPA, saline, pH 5.80, 25° C.): 99.02% | Percentage of ^225Ac present in [^225Ac]Ac-DOTA-TATE ([1]; Dextran 10% w/w, 48 hours, 100 mM sodium ascorbate, 0.05 mg/ml DTPA, saline, pH 5.80, 25° C.): 98.75% | Percentage of ^225Ac present in [^225Ac]Ac-DOTA-TATE ([1]; Dextran 10% w/w, 72 hours, 100 mM sodium ascorbate, 0.05 mg/ml DTPA, saline, pH 5.80, 25° C.): 97.83% | Percentage of ^225Ac present in [^225Ac]Ac-DOTA-TATE ([1]; Dextran 10% w/w, 96 hours, 100 mM sodium ascorbate, 0.05 mg/ml DTPA, saline, pH 5.80, 25° C.): 96.42% | Percentage of ^225Ac present in [^225Ac]Ac-DOTA-TATE ([1]; Dextran 10% w/w, 120 hours, 100 mM sodium ascorbate, 0.05 mg/ml DTPA, saline, pH 5.80, 25° C.): 96.58% | Percentage of ^225Ac present in [^225Ac]Ac-DOTA-TATE ([1]; Dextran 10% w/w, 144 hours, 100 mM sodium ascorbate, 0.05 mg/ml DTPA, saline, pH 5.80, 25° C.): 95.37% | Percentage of ^225Ac present in [^225Ac]Ac-DOTA-TATE ([2]; sodium ascorbate 1 mM, 0 hour, Radioactivity concentration at 1 mCi/ml): 99.76% | Percentage of ^225Ac present in [^225Ac]Ac-DOTA-TATE ([2]; sodium ascorbate 1 mM, 24 hours, Radioactivity concentration at 1 mCi/ml): 91.11% | Percentage of ^225Ac present in [^225Ac]Ac-DOTA-TATE ([2]; sodium ascorbate 1 mM, 48 hours, Radioactivity concentration at 1 mCi/ml): 52.06% | Percentage of ^225Ac present in [^225Ac]Ac-DOTA-TATE ([2]; sodium ascorbate 10 mM, 0 hour, Radioactivity concentration at 1 mCi/ml): 99.78% | Percentage of ^225Ac present in [^225Ac]Ac-DOTA-TATE ([2]; sodium ascorbate 10 mM, 24 hours, Radioactivity concentration at 1 mCi/ml): 92.21% | Percentage of ^225Ac present in [^225Ac]Ac-DOTA-TATE ([2]; sodium ascorbate 10 mM, 48 hours, Radioactivity concentration at 1 mCi/ml): 86.11% | Percentage of ^225Ac present in [^225Ac]Ac-DOTA-TATE ([2]; sodium ascorbate 100 mM, 0 hour, 0.02 mCi/ml, 0.05 mg/ml DTPA): 99.15% | Percentage of ^225Ac present in [^225Ac]Ac-DOTA-TATE ([2]; sodium ascorbate 100 mM, 24 hours, 0.02 mCi/ml, 0.05 mg/ml DTPA): 98.76% | Percentage of ^225Ac present in [^225Ac]Ac-DOTA-TATE ([2]; sodium ascorbate 100 mM, 48 hours, 0.02 mCi/ml, 0.05 mg/ml DTPA): 96.94% | Percentage of ^225Ac present in [^225Ac]Ac-DOTA-TATE ([2]; sodium ascorbate 100 mM, 72 hours, 0.02 mCi/ml, 0.05 mg/ml DTPA): 96.16% | Percentage of ^225Ac present in [^225Ac]Ac-DOTA-TATE ([2]; sodium ascorbate 100 mM, 96 hours, 0.02 mCi/ml, 0.05 mg/ml DTPA): 95.84% | Percentage of ^225Ac present in [^225Ac]Ac-DOTA-TATE ([2]; sodium ascorbate 100 mM, 120 hours, 0.02 mCi/ml, 0.05 mg/ml DTPA): 95.44% | Percentage of ^225Ac present in [^225Ac]Ac-DOTA-TATE ([2]; sodium ascorbate 100 mM, 144 hours, 0.02 mCi/ml, 0.05 mg/ml DTPA): 95.34% | Percentage of ^225Ac present in [^225Ac]Ac-DOTA-TATE ([2]; sodium ascorbate 200 mM, 0 hour, 0.02 mCi/ml, 0.05 mg/ml DTPA): 99.22% | Percentage of ^225Ac present in [^225Ac]Ac-DOTA-TATE ([2]; sodium ascorbate 200 mM, 24 hours, 0.02 mCi/ml, 0.05 mg/ml DTPA): 98.16% | Percentage of ^225Ac present in [^225Ac]Ac-DOTA-TATE ([2]; sodium ascorbate 200 mM, 48 hours, 0.02 mCi/ml, 0.05 mg/ml DTPA): 97.12% | Percentage of ^225Ac present in [^225Ac]Ac-DOTA-TATE ([2]; sodium ascorbate 200 mM, 72 hours, 0.02 mCi/ml, 0.05 mg/ml DTPA): 95.63% | Percentage of ^225Ac present in [^225Ac]Ac-DOTA-TATE ([2]; sodium ascorbate 200 mM, 96 hours, 0.02 mCi/ml, 0.05 mg/ml DTPA): 95.51% | Percentage of ^225Ac present in [^225Ac]Ac-DOTA-TATE ([2]; sodium ascorbate 200 mM, 120 hours, 0.02 mCi/ml, 0.05 mg/ml DTPA): 94.38% | Percentage of ^225Ac present in [^225Ac]Ac-DOTA-TATE ([2]; sodium ascorbate 200 mM, 144 hours, 0.02 mCi/ml, 0.05 mg/ml DTPA): 91.27% | free Actinium ([3]; 0 hour): 0.5% free Actinium | Percentage of ^225Ac present in [^225Ac]Ac-DOTA-TATE ([3]; 0 hour): 99.5% | fragments ([3]; 24 hours): 3.2% | free Actinium ([3]; 24 hours): 2.0% | Percentage of ^225Ac present in [^225Ac]Ac-DOTA-TATE ([3]; 24 hours): 94.8% | fragments ([3]; 48 hours): 4.8% | free Actinium ([3]; 48 hours): 3.5% | Percentage of ^225Ac present in [^225Ac]Ac-DOTA-TATE ([3]; 48 hours): 91.8% | fragments ([3]; 72 hours): 7.7% | free Actinium ([3]; 72 hours): 8.8% | Percentage of ^225Ac present in [^225Ac]Ac-DOTA-TATE ([3]; 72 hours): 83.5% | fragments ([3]; 96 hours): 11.8% | free Actinium ([3]; 96 hours): 9.2% | Percentage of ^225Ac present in [^225Ac]Ac-DOTA-TATE ([3]; 96 hours): 79.1%
